Assay results: publication PMC2556094 (The EMBO Journal, 2008)

B1: human Sgt1, wild type (natural protein, UniProt Q9Y2Z0-2 1-333, looked up)
chain: MAAAAAGTATSQRFFQSFSDALIDEDPQAALEELTKALEQKPDDAQYYCQRAYCHILLGNYCVAVADAKKSLELNPNNSTAMLRKGICEYHEKNYAAALETFTEGQKLDSADANFSVWIKRCQEAQNGSESEVWTHQSKIKYDWYQTESQVVITLMIKNVQKNDVNVEFSEKELSALVKLPSGEDYNLKLELLHPIIPEQSTFKVLSTKIEIKLKKPEAVRWEKLEGQGDVPTPKQFVADVKNLYPSSSPYTRNWDKLVGEIKEEEKNEKLEGDAALNRLFQQIYSDGSDEVKRAMNKSFMESGGTVLSTNWSDVGKRKVEINPPDDMEWKKY

Assays:
[1] = molecular target: Hsp90 (of the ITC in Supplementary Figure 1); assay: ITC
His6-tagged human Hsp90β = His6-tagged human Hsp90β (human, UniProt P08238 1-724); assay: pull-down
human Skp1 (human) = human Skp1 (human) (UniProt P63208); assay: ITC

Chain of His6-tagged human Hsp90β (P08238 whole entry): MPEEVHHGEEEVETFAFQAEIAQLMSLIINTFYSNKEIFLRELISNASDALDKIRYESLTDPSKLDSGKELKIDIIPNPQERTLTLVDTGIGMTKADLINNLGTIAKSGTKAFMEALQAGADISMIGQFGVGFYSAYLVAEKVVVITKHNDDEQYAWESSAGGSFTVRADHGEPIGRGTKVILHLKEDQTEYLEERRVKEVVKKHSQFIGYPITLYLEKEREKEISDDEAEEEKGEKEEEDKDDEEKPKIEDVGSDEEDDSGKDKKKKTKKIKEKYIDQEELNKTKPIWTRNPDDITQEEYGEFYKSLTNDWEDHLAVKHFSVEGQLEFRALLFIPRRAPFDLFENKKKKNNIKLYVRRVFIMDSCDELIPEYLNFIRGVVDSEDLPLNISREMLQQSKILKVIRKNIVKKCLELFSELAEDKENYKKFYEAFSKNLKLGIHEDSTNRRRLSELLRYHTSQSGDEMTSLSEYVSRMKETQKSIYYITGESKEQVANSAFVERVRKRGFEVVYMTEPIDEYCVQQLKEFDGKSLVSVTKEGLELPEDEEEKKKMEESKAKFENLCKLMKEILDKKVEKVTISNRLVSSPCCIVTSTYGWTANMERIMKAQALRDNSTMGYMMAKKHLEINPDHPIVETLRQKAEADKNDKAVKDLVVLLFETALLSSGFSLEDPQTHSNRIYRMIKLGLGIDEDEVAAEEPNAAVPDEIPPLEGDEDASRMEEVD

| Molecule | stoichiometry N [1] | binding result (His6-tagged human Hsp90β) | Kd (human Skp1 (human)) |
| --- | --- | --- | --- |
| Sgt1 (of the ITC in Supplementary Figure 1) (natural protein) | 1 | – | – |
| B1 | – | binds | 1.64 µM |
